Assay results from US20230287081A1 (NANTONG YICHEN BIOPHARMA, published 2023).

Tests used:
[1] = target: T1, hPD-L1-hIGg1Fc (SinoBiological) (human, UniProt Q9NZQ7 19-238); assay: ELISA, hPD-L1-hIgG1Fc coated
T1 construct: Bought reagent; also called soluble hPD-L1; human PD-L1; not shown: human IgG1 Fc
Experimental: (§1) hPD-L1-hIGg1Fc (SinoBiological) or mouse PD-L1-Fc (SinoBiological) (100 ng/well) was coated in 96-well plates, and incubated overnight at 4° C. […] After being washed with PBST containing 2% skimmed milk powder for 4-5 times, anti-human kappa light chain-HRP (Sigma A7146, 1:3000) secondary antibody was added and incubated at room temperature for 1 h, and then washed with PBST containing 2% skimmed milk powder for 4-5 times. Colordevelopment was performed by QuantaBlu fluorescent peroxidase substrate (Life technologies, Cat.15169) and read at 325 nm and 420 nm, or by TMB color reagent (BioLegend, Cat. 421101) and read at 650 nm (unterminated) or 450 nm (terminated). Data was analyzed by nonlinear regression using specific binding model with Prizm Graphpad software.

[2] = target: T2, mouse PD-L1-Fc (SinoBiological) (mouse, UniProt Q9EP73 19-238, limits assumed); assay: ELISA, mouse PD-L1-Fc coated
T2 construct: Bought reagent; also called soluble mPD-L1; not shown: Fc
T2 sequence (Q9EP73 19-238 limits assumed): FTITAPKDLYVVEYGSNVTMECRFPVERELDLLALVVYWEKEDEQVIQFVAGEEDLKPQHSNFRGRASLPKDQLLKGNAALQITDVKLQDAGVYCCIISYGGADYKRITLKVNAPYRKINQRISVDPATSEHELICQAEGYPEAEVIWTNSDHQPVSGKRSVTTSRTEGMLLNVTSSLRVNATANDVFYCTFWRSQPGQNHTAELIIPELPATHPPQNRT
Experimental: as §1

[3] = target: T3, hPD-L1 on the cell surface (CHO-hPD-L1 cells; A431 cells) (human, UniProt Q9NZQ7 19-290); assay: flow cytometry on A431 cells (hGPC3- hPDL1+)
T3 construct: whole, on cells; also called CHO-PD-L1
T3 sequence (Q9NZQ7 19-290): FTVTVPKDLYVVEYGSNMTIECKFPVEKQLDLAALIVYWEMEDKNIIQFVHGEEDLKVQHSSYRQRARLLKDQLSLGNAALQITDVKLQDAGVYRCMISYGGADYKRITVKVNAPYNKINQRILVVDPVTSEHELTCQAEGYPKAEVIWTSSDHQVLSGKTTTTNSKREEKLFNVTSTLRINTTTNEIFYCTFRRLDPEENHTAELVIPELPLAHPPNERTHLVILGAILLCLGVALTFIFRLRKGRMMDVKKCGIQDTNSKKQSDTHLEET
Experimental: (§2) A431, MC38-hEGFR, CHO-PD-L1, HepG2, and Hepa1-6 cells (DMEM medium containing 10% FBS, 1% double antibody) were cultured. After trypsinization, 2*10⁵ cells were taken and washed with pre-cooled PBS for 3 times. After blocked with PBS containing 2% FBS at 4° C., supernatant was discarded by centrifugation, 100 µL of the antibody fusion proteins with different concentrations diluted by the PBS solution containing 2% FBS were added and incubated at 4° C. for 1 h. The unbound antibody fusion protein was washed off with PBS containing 2% FBS, and secondary antibody Mouse Anti-Human IgG Fc-APC (Southern biotech) was added and incubated at 4° C. for 1 h. After being washed with PBS containing 2% FBS for three times, the fluorescence intensity was detected by flow cytometry.

[4] = target: T4, mPDL1 on the surface of Hepa1-6 cells (mouse, UniProt Q9EP73 19-290); assay: flow cytometry on Hepa1-6 cells (hGPC3- mPDL1+)
T4 construct: whole, on cells; also called mouse PD-L1
T4 sequence (Q9EP73 19-290): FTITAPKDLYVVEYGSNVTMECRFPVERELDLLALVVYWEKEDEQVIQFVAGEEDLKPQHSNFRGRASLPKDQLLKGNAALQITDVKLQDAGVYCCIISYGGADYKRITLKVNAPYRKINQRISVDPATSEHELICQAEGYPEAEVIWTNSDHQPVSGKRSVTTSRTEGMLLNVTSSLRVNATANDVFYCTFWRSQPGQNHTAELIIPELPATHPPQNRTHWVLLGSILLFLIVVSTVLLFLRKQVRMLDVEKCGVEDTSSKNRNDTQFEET
Experimental: as §2

[5] = target: T3, hPD-L1 on the cell surface (CHO-hPD-L1 …); assay: flow cytometry on CHO-hPD-L1 cells (hEGFR- hPDL1+)
Experimental: as §2

[6] = target: T1, hPD-L1-hIGg1Fc (SinoBiological); assay: ELISA, hPD-L1-hIgG1Fc coated; weaker than the PD-1m fusion
Experimental: as §1

[7] = target: T2, mouse PD-L1-Fc (SinoBiological); assay: ELISA, mouse PD-L1-Fc coated; weaker than the PD-1m fusion
Experimental: as §1

Measured: binding result

T1 sequence (Q9NZQ7 19-238 limits assumed): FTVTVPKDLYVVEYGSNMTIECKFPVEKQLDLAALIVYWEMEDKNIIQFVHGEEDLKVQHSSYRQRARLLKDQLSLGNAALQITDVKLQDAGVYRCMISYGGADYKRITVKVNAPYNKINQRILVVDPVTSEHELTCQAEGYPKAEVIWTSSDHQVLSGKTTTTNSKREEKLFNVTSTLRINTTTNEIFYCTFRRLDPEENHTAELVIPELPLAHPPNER

B1: PD-1m-aGPC-3L (bispecific antibody, human IgG1, kappa)
heavy: QVQLVQSGAEVKKPGASVKVSCKASGYTFTDYEMHWVRQAPGQGLEWMGALDPKTGDTAYSQKFKGRVTLTADKSTSTAYMELSSLTSEDTAVYYCTRFYSYTYWGQGTLVTVSSASTKGPSVFPLAPSSKSTSGGTAALGCLVKDYFPEPVTVSWNSGALTSGVHTFPAVLQSSGLYSLSSVVTVPSSSLGTQTYICNVNHKPSNTKVDKKVEPKSCDKTHTCPPCPAPPVAGPSVFLFPPKPKDTLMISRTPEVTCVVVDVSHEDPEVKFNWYVDGVEVHNAKTKPREEQYNSTYRVVSVLTVLHQDWLNGKEYKCKVSNKGLPSSIEKTISKAKGQPREPQVYTLPPSRDELTKNQVSLTCLVKGFYPSDIAVEWESNGQPENNYKTTPPVLDSDGSFFLYSKLTVDKSRWQQGNVFSCSVMHEALHNHYTQKSLSLSPGK
light: LDSPDRPWNPPTFSPALLVVTEGDNATFTCSFSNTSESFVLNWYRMSPSNQTDKLAAFPEDRSQPGQDSRFRVTQLPNGRDFHMSVVRARRNDSGTYLCGAISLAPKVQIKESLRAELRVTERRAEVPTAHPSPSPRPAGQFQGGGGSGGGGSGGGGSGDVVMTQSPLSLPVTPGEPASISCRSSQSLVHSNRNTYLHWYLQKPGQSPQLLIYKVSNRFSGVPDRFSGSGSGTDFTLKISRVEAEDVGVYYCSQNTHVPPTFGQGTKLEIKRTVAAPSVFIFPPSDEQLKSGTASVVCLLNNFYPREAKVQWKVDNALQSGNSQESVTEQDSKDSTYSLSSTLTLSKADYEKHKVYACEVTHQGLSSPVTKSFNRGEC
binds: [1] | [2] | [3] | [4]

B2: PD-1m-aEGFRL (bispecific antibody, human IgG1, kappa)
heavy: QVQLQESGPGLVKPSETLSLTCTVSGGSVSSGDYYWTWIRQSPGKGLEWIGHIYYSGNTNYNPSLKSRLTISIDTSKTQFSLKLSSVTAADTAIYYCVRDRVTGAFDIWGQGTMVTVSSASTKGPSVFPLAPSSKSTSGGTAALGCLVKDYFPEPVTVSWNSGALTSGVHTFPAVLQSSGLYSLSSVVTVPSSSLGTQTYICNVNHKPSNTKVDKKVEPKSCDKTHTCPPCPAPPVAGPSVFLFPPKPKDTLMISRTPEVTCVVVDVSHEDPEVKFNWYVDGVEVHNAKTKPREEQYNSTYRVVSVLTVLHQDWLNGKEYKCKVSNKGLPSSIEKTISKAKGQPREPQVYTLPPSRDELTKNQVSLTCLVKGFYPSDIAVEWESNGQPENNYKTTPPVLDSDGSFFLYSKLTVDKSRWQQGNVFSCSVMHEALHNHYTQKSLSLSPGK
light: not shown
binds: [1] | [5] | [2]

B3: PD-1-aEGFRL (bispecific antibody)
heavy: QVQLQESGPGLVKPSETLSLTCTVSGGSVSSGDYYWTWIRQSPGKGLEWIGHIYYSGNTNYNPSLKSRLTISIDTSKTQFSLKLSSVTAADTAIYYCVRDRVTGAFDIWGQGTMVTVSSASTKGPSVFPLAPSSKSTSGGTAALGCLVKDYFPEPVTVSWNSGALTSGVHTFPAVLQSSGLYSLSSVVTVPSSSLGTQTYICNVNHKPSNTKVDKKVEPKSCDKTHTCPPCPAPPVAGPSVFLFPPKPKDTLMISRTPEVTCVVVDVSHEDPEVKFNWYVDGVEVHNAKTKPREEQYNSTYRVVSVLTVLHQDWLNGKEYKCKVSNKGLPSSIEKTISKAKGQPREPQVYTLPPSRDELTKNQVSLTCLVKGFYPSDIAVEWESNGQPENNYKTTPPVLDSDGSFFLYSKLTVDKSRWQQGNVFSCSVMHEALHNHYTQKSLSLSPGK
light: not shown
notes: Wild-type human PD-1 fused to the light chain of the anti-human EGFR antibody
binds: [6] | [7]
